Drawing on paper PMC4424342, this text covers fold reduction of binding against the wild-type SH2 domains for three substances.

The target in the assay is GST-Shp2 SH2 T73D/S189D. Description: pull-down; glutathione-Sepharose bead-bound bacterial GST-Shp2 SH2 proteins incubated with lysates of HEK293T cells transfected with the ligand and constitutively active Src; 1 h at 4 °C; bound proteins immunoblotted for phosphotyrosine (4G10) and GST; band intensities quantified with ImageJ.

In turn, “GFP-PKD1, tyrosine-phosphorylated (from UniProt Q15139 1-912) (enzyme)” came in with a fold reduction of binding against the wild-type SH2 domains of 1.7 fold.
Consider “Venus-GAB1, tyrosine-phosphorylated (from UniProt Q13480 1-694) (natural protein)”, for which the fold reduction of binding against the wild-type SH2 domains came out at 5.7 fold.
“Venus-GAB2, tyrosine-phosphorylated (from UniProt Q9UQC2 1-676) (natural protein)” displayed a fold reduction of binding against the wild-type SH2 domains of 2.7 fold.
